How the values were obtained:
Experiment in all cases: SEC-MALS; size-exclusion chromatography (Superdex 200) in 10-mM Tris, pH 7.5, 150-mM NaCl with Dawn Heleos II light scattering and Optilab T-rEX dRI detectors
[1] = biological target: DdahC (C. jejuni)
[2] = biological target: DdahB (C. jejuni)
[3] = biological target: MlghC (C. jejuni)
[4] = biological target: MlghB (C. jejuni)

Question: For DdahC (enzyme), which stoichiometry N [1] is on record?
Answer: 2

Question: DdahB (enzyme) was tested. Which stoichiometry N [2] did it give?
Answer: 2

Question: For MlghC (enzyme), which stoichiometry N [3] is on record?
Answer: 2

Question: MlghB (enzyme) was tested. Which stoichiometry N [4] did it give?
Answer: 2
